Laboratory results: the DeepSol protein solubility set

Assay: soluble on expression in E. coli; label from the status in PepcDB or PDB records
For “MEKDISRKIDLLNILIEEKRWFTLFELEKNLNCSSKTIRKDISIINDLLPKTIFIHSKKGKGVKLSLPQNQSISEAISNLLKKSLTFLAIQQLLEERSNTVTSLADKLYLPISSTNIVLKRVSKYIKKFGLSLEKKPLRIVGDEFQIILMFSERYLESYPDTEWPFTEYKEEMLIDYINYIEEKLEIVFYSNDKRRMAFIMTILFKRIKQGHKVKFSEWIIKETMESIYYKKIFEGKNVIKVNKNRSLNIEEQVLLVIMVKLSRYVSKDENNLKQEELVLYKEGESTTYTYVKNFISILEQELKIDLNNNEEFVYGMIEYCREAFHILKFIPILKAPEKDTCKYIKKHYEETFYLVKRAYNKWGAEMKLTDIPDEEIAKVTMRIVAIGKQHNINRKKVLLITGEGKSWEEYMKSRINKRYGDQLKFVGGHAKILNGNTDNIDNIDIDFIITTVPLNFSWKSIVYVSPILQERDFYEIGIFASK”, the “soluble on expression in E. coli” value was “not soluble”.
For “MGKEYVVIGLGRFGGSIVRELNALDMDVMAIDHDENRVNEYSDIATHAVVADTTDEAVMKSLGIRNFDHVIVAIGENIQSSTLTTLILKELGVKKVTAKAQNDYHAKILNKIGADTVVHPERDMGRRIAHNVASASVLDYLELADEHSIVELKATEKMAGQSIIDLDIRAQYGINIIAIKRGKEFIISPNPNINLEIGDILIMIGHDNDLNRFEKNIATR”, the “soluble on expression in E. coli” value was “not soluble”.
With “MSLLSSEGPIFYVQERIGQNYKPFNCIKFRTMVSNADEVLMQMMETSPQLRQEFESSFKLKKDPRITKIGQFLRITSLDEFPQFWNVLKGDMSVVGPRPLVAEELPKYGDHIEQVLTIRPGITGLWQVSGRNDIPYPRRVQIDLHYVKSRTLWLDLWIILKTIDVVIMPKNNGAYEGHHHHHH” the “soluble on expression in E. coli” value was “soluble”.
In the case of “GSHMDHLPMPKFGPLAGLRVVFSGIEIAGPFAGQMFAEWGAEVIWIENVAWADTIRVQPNYPQLSRRNLHALSLNIFKDEGREAFLKLMETTDIFIEASKGPAFARRGITDEVLWQHNPKLVIAHLSGFGQYGTEEYTNLPAYNTIAQAFSGYLIQNGDVDQPMPAFPYTADYFSGLTATTAALAALHKVRETGKGESIDIAMYEVMLRMGQYFMMDYFNGGEMCPRMSKGKDPYYAGCGLYKCADGYIVMELVGITQIEECFKDIGLAHLLGTPEIPEGTQLIHRIECPYGPLVEEKLDAWLATHTIAEVKERFAELNIACAKVLTVPELESNPQYVARESITQWQTMDGRTCKGPNIMPKFKNNPGQIWRGMPSHGMDTAAILKNIGYSENDIQELVSKGLAKVED”, the “soluble on expression in E. coli” value is reported as “soluble”.
For “MDFVHCNKCFNRKPPDGFFISSCFHIFCTKCAKADLAVCLICKKNVRLVRLDGNISSGIKIYFADPIKMVADSLAKIQKKIDFQQSTRDHLVKYLTKEKEKKRQMEVYFRTKGQEFDSQRKKLAEATAWIQMAEKKLQASEEERVKAEREIEECQAKLKSMTNLMSADTLGMNSQTPFPFSLAESQETAPSLVESSANSTFNMVSPLVSSPASSPNSINYNSFFENGSRTRPESLNEEAMFNTMSSGQSANANTSESSAFSVAFNNIFTPSRNNMGDSSMINKTTANQTIMDKTSMSLENWRQNRANSFGVHDISKRDSSLPTGGGSAIRVHHFKQNSRITPIAQNRRSAAGFDRQQIQEMRRISSQPGYLAQRKPINGRSFIGPAD”, the “soluble on expression in E. coli” value was “not soluble”.
In the case of “MARPIGIYEKATPKHFTWLERLNFAKELGFDFVELSIDESDERLARLDWSKKERLELVNAIFETGVRIPTITFSGHRRYPLGSNDSEKEARALEMMEKCIEFAQDIGIRNIQLAGYDVYYEEKSPKTRARFLKNLRQACTWAEEAQVILSIEIMDDPFINSIEKYLAVEKEIDSPYLFVYPDAGNVSAWGNDLWSEFYIGHKSIAALHLKDTYAVTESSKGQFRDVPFGQGCVDWEAMFDVLKKTNYNGPFLIEMWSENCETVEETRAAIKEAQDFLYPLIEKAGLR”, the “soluble on expression in E. coli” value is reported as “not soluble”.
In the case of “MSLGSGTSTQHHFAFQNAERAFKAAALIQRWYRRYVARLEMRRRCTWSIFQSIEYAGQQDQVKLHDFFSYLMDHFIPSSHNDRDFLTRIFTEDRFAQDSEMKKCSDYESIEVPDSYTGPRLSFPLLPDHATALVEAFRLKQQLHARYVLNLLYETKKHLVQLPNINRVSTCYSEEITVCGDLHGQLDDLIFIFYKNGLPSPERSYVFNGDFVDRGKDSVEILMILFAFMLVYPKEFHLNRGNHEDHMVNLRYGFTKEVMNKYKVHGKEILRTLQDVFCWLPLATLIDEKVLILHGGVSDITDLELLDKIERSKIVSTMRSGTQEEWRQVVDILWSDPMAQEGCKANTIRGGGCYFGPDVTQQLLQKYNMQFLIRSHECKPEGYEFCHNRKVLTIFSASNYYEVGSNRGAYVKLGPALTPHIVQYQANKVTHTLTMRQREGHHHHHH”, the “soluble on expression in E. coli” value is reported as “not soluble”.
